Data taken from US20180369425A1, “LINKED AND OTHER pH-TRIGGERED COMPOUNDS” (priority 2017, published 2018).
Values joined by “and” are separate entries in the source; they are usually repeats but may differ in a detail not shown here. Identical values can stand only once. Residues, ends and D or L forms follow the SMILES beside them. *: point of attachment. X1 = CC1(C)C(/C=C/C=C/C=C/C=C2/N(CCCCCC(=O)NCCN3C(=O)CC(*)C3=O)c3ccc4ccccc4c3C2(C)C)=[N+](CCCCS(=O)(=O)[O-])c2ccc3ccccc3c21

Columns and labels:
[1] = Blood clearance of ICG-pHLIP after single tail vein injection; type: in vivo, mouse; settings: for Concentration in blood, Mean ± St. D.: 5 animals; for Concentration in blood, Mean ± St. D. / Concentration in blood: 2.5 nmol tail vein; for Concentration in blood: individual animal, listed as ICG-Var3
Protocol: (§1) BALB/cAcNHsd mice ranging in age from 5 to 6 weeks obtained from Envigo RMS Inc were used in the study. Mouse mammary 4T1 cancer cells were subcutaneously implanted in the right flank (8×10^5 cells/0.1 mL/flank) of adult female mice. Triple negative 4T1 tumor model closely mimics stage IV of human breast cancer. When tumors reached 5-6 mm in diameter, single tail vein injections of 2.5 nmol (or 0.5 mg/kg) of ICG-pHLIP in sterile PBS with 5% DMSO or 5% Ethanol (volume of the injection was 100 μl) were performed. The whole body and ex vivo imaging was performed using a Stryker 1588 AIM clinical imaging system with L10 AIM Light Source, 1588 AIM Camera using a 10 mm or 5 mm scope.
(§2) Animals were euthanized at time points: 5 min, 1 hr, 2 hrs, 4 hrs, 6 hrs, 16 hrs, 26 hrs and 48 hrs. […] 100 μl of blood was collected immediately after euthanasia and mixed with 12.5 μl of citrate-dextrose anticoagulant solution (kept at 4° C.), and necropsy was performed. Tumor, muscles, skin, heart, lungs, liver, spleen, kidneys, brain, pancreas, bone, stomach, small and large intestines were collected, imaged immediately after collection, weighed, and fast frozen in liquid nitrogen.
Blood samples mixed with of anti-coagulant solution were placed in 384 well plates (MatTek, glass bottom) (15 μL per well) and imaged on an Odyssey IR scanner (Li-Cor Biosciences). […] The same amounts (15 μL) of blood samples were placed in 384 well plate and imaged together with all other blood samples. The digital images were processed using the Image J program to calculate mean fluorescence intensity. The calibration curve (known concentration of ICG-pHLIP in blood samples vs intensity) was constructed to calculate the amount of ICG-pHLIP in blood samples collected from the mice at different times after construct administration.

[2] = test system: 4T1 tumor; assay: Ex vivo NIRF imaging of organs (biodistribution and kinetics of ICG-pHLIP); type: in vivo, mouse; settings: for Fluorescence intensity, Bone / Fluorescence intensity, Brain / Fluorescence intensity, Heart / Fluorescence intensity, Kidneys / Fluorescence intensity, L. Intest. / Fluorescence intensity, Liver / Fluorescence intensity, Lungs / Fluorescence intensity, Muscle / Fluorescence intensity, Pancreas / Fluorescence intensity, S. Intest. / Fluorescence intensity, Skin / Fluorescence intensity, Spleen / Fluorescence intensity, Stomach / Fluorescence intensity, Tumor: mean ± St. D., 5 animals
Protocol: as §1, §2
The ex vivo imaging of organs was performed using a Stryker 1588 AIM clinical imaging system with L10 AIM Light Source, 1588 AIM Camera using a 10 mm scope. The lens was spaced 4.3 cm away from the surface of the organs within an enclosed (light protected) area. The NIRF imaging of each organ was performed at three different laser intensities set on a hexadecimal scale as 0B-22 (low), 12-5C (medium), and 20-3A (high). The digital images of organs were processed using program written in Python to determine the average level of intensity recorded in the green channel. Since organs were imaged in the dark on black mats, the background signal was determined by introducing an intensity threshold. All the pixels with intensity from the green channel above the set threshold were counted and the average green intensity per pixel was calculated. Thus, the mean intensity per organ (Table 17a) and averaged over organs from 5 animals (Table 17b) was calculated.

Q: With `CC(C)C[C@H](NC(=O)[C@H](Cc1ccc(O)cc1)NC(=O)[C@H](C)NC(=O)[C@H](CCCNC(=N)N)NC(=O)[C@H](Cc1c[nH]c2ccccc12)NC(=O)[C@@H]1CCCN1C(=O)[C@H](CC(N)=O)NC(=O)[C@H](CCC(N)=O)NC(=O)[C@H](CC(=O)O)NC(=O)[C@H](CC(=O)O)NC(=O)[C@H](CSC1CC(=O)N(CCNC(=O)CCCCCN2/C(=C/C=C/C=C/C=C/C3=[N+](CCCCS(=O)(=O)[O-])c4ccc5ccccc5c4C3(C)C)C(C)(C)c3c2ccc2ccccc32)C1=O)NC(=O)[C@H](C)N)C(=O)N[C@@H](CC(=O)O)C(=O)N[C@@H](CC(C)C)C(=O)N[C@@H](CC(C)C)C(=O)N[C@@H](Cc1ccccc1)C(=O)N1CCC[C@H]1C(=O)N[C@H](C(=O)N[C@@H](CC(=O)O)C(=O)N[C@H](C(=O)N[C@@H](CC(C)C)C(=O)N[C@@H](CC(C)C)C(=O)N[C@@H](CC(C)C)C(=O)N[C@@H](CC(=O)O)C(=O)N[C@@H](CC(C)C)C(=O)N[C@@H](CC(C)C)C(=O)N[C@@H](Cc1c[nH]c2ccccc12)C(=O)N[C@@H](C)C(=O)O)[C@@H](C)O)[C@@H](C)O` (stereo partly shown) [ICG-pHLIP] (H-AC(X1)DDQNPWRAYLDLLFPTDTLLLDLLWA-OH) as the compound, how does the “Concentration in blood, Mean ± St. D.” value ([1]; 5 min p.i.) read?
A: Its value is 2.28 ± 0.23 nmol.

Q: And the Concentration in blood ([1]; 5 min p.i.)?
A: The Concentration in blood was 2.56 nmol and 2.09 nmol and 2.47 nmol and 2.02 nmol and 2.24 nmol.

Q: What about the “Concentration in blood, Mean ± St. D.” value ([1]; 1 hour p.i.) of the same compound?
A: Its value is 1.25 ± 0.35 nmol.

Q: What about the Concentration in blood ([1]; 1 hour p.i.) of the same compound?
A: The Concentration in blood was 1.40 nmol and 1.31 nmol and 1.73 nmol and 0.93 nmol and 0.88 nmol.

Q: And the “Concentration in blood, Mean ± St. D.” value ([1]; 2 hours p.i.)?
A: Its value is 0.59 ± 0.15 nmol.

Q: What about the Concentration in blood ([1]; 2 hours p.i.) of the same compound?
A: The Concentration in blood was 0.64 nmol and 0.40 nmol and 0.67 nmol and 0.47 nmol and 0.76 nmol.

Q: What about the “Concentration in blood, Mean ± St. D.” value ([1]; 4 hours p.i.) of the same compound?
A: Its value is 0.51 ± 0.07 nmol.

Q: What about the Concentration in blood ([1]; 4 hours p.i.) of the same compound?
A: The Concentration in blood was 0.41 nmol and 0.49 nmol and 0.57 nmol (2×) and 0.48 nmol.

Q: And the “Concentration in blood, Mean ± St. D.” value ([1]; 6 hours p.i.)?
A: Its value is 0.38 ± 0.06 nmol.

Q: What about the Concentration in blood ([1]; 6 hours p.i.) of the same compound?
A: Its Concentration in blood is 0.41 nmol and 0.38 nmol and 0.32 nmol and 0.35 nmol and 0.46 nmol.

Q: And the “Concentration in blood, Mean ± St. D.” value ([1]; 16 hours p.i.)?
A: Its value is 0.12 ± 0.03 nmol.

Q: What about the Concentration in blood ([1]; 16 hours p.i.) of the same compound?
A: Its Concentration in blood is 0.11 nmol and 0.13 nmol and 0.10 nmol and 0.16 nmol and 0.08 nmol.

Q: What about the “Concentration in blood, Mean ± St. D.” value ([1]; 26 hours p.i.) of the same compound?
A: The value was 0.02 ± 0.01 nmol.

Q: What about the Concentration in blood ([1]; 26 hours p.i.) of the same compound?
A: The Concentration in blood was 0.02 nmol (3×) and 0.03 nmol (2×).

Q: And the half-life ([1]; female, BALB/cAcNHsd, mouse, whole blood, intravenous, 0.5 mg/kg, two-phase kinetics, read-out: characteristic half lifetime of blood clearance, first phase (converted))?
A: The half-life was 36 min.

Q: And the “characteristic time for complete clearance of the blood, second phase” value ([1]; two-phase kinetics)?
A: Its value is 7.5 h.

Q: What about the “signal drop in first phase of blood clearance” value ([1]; two-phase kinetics) of the same compound?
A: Its value is 66%.

Q: What about the “time the fluorescence stays within the tumor” value ([2]; 4T1 tumor) of the same compound?
A: The value was “up to 26 hours”.

Q: And the “Fluorescence intensity, Bone” value ([2]; 5 min p.i.)?
A: The value was 79.4 ± 8.1 a.u.

Q: And the “Fluorescence intensity, Brain” value ([2]; 5 min p.i.)?
A: Its value is 167.0 ± 22.5 a.u.

Q: What about the “Fluorescence intensity, Heart” value ([2]; 5 min p.i.) of the same compound?
A: Its value is 198.1 ± 15.9 a.u.

Q: And the “Fluorescence intensity, Kidneys” value ([2]; 5 min p.i.)?
A: The value was 171.7 ± 18.4 a.u.

Q: What about the “Fluorescence intensity, L. Intest.” value ([2]; 5 min p.i.) of the same compound?
A: The value was 37.1 ± 7.9 a.u.

Q: And the “Fluorescence intensity, Liver” value ([2]; 5 min p.i.)?
A: Its value is 419.8 ± 37.9 a.u.

Q: And the “Fluorescence intensity, Lungs” value ([2]; 5 min p.i.)?
A: Its value is 216.6 ± 2.7 a.u.

Q: And the “Fluorescence intensity, Muscle” value ([2]; 5 min p.i.)?
A: Its value is 22.2 ± 20.3 a.u.

Q: And the “Fluorescence intensity, Pancreas” value ([2]; 5 min p.i.)?
A: The value was 153.2 ± 34.7 a.u.

Q: And the “Fluorescence intensity, S. Intest.” value ([2]; 5 min p.i.)?
A: The value was 42.4 ± 12.2 a.u.

Q: What about the “Fluorescence intensity, Skin” value ([2]; 5 min p.i.) of the same compound?
A: The value was 27.9 ± 16.4 a.u.

Q: And the “Fluorescence intensity, Spleen” value ([2]; 5 min p.i.)?
A: Its value is 154.6 ± 9.0 a.u.

Q: What about the “Fluorescence intensity, Stomach” value ([2]; 5 min p.i.) of the same compound?
A: The value was 91.7 ± 13.4 a.u.

Q: What about the “Fluorescence intensity, Tumor” value ([2]; 5 min p.i.) of the same compound?
A: The value was 36.2 ± 6.0 a.u.

Q: What about the “Fluorescence intensity, Bone” value ([2]; 1 hour p.i.) of the same compound?
A: Its value is 74.0 ± 13.1 a.u.

Q: And the “Fluorescence intensity, Brain” value ([2]; 1 hour p.i.)?
A: The value was 137.7 ± 8.9 a.u.

Q: And the “Fluorescence intensity, Heart” value ([2]; 1 hour p.i.)?
A: Its value is 179.6 ± 16.4 a.u.

Q: And the “Fluorescence intensity, Kidneys” value ([2]; 1 hour p.i.)?
A: Its value is 193.7 ± 10.6 a.u.

Q: What about the “Fluorescence intensity, L. Intest.” value ([2]; 1 hour p.i.) of the same compound?
A: The value was 28.4 ± 17.9 a.u.

Q: What about the “Fluorescence intensity, Liver” value ([2]; 1 hour p.i.) of the same compound?
A: The value was 533.0 ± 16.7 a.u.

Q: What about the “Fluorescence intensity, Lungs” value ([2]; 1 hour p.i.) of the same compound?
A: Its value is 194.7 ± 6.2 a.u.

Q: What about the “Fluorescence intensity, Muscle” value ([2]; 1 hour p.i.) of the same compound?
A: The value was 8.2 ± 18.2 a.u.

Q: What about the “Fluorescence intensity, Pancreas” value ([2]; 1 hour p.i.) of the same compound?
A: The value was 132.7 ± 24.5 a.u.

Q: And the “Fluorescence intensity, S. Intest.” value ([2]; 1 hour p.i.)?
A: The value was 71.9 ± 16.9 a.u.

Q: What about the “Fluorescence intensity, Skin” value ([2]; 1 hour p.i.) of the same compound?
A: The value was 39.1 ± 9.0 a.u.

Q: And the “Fluorescence intensity, Spleen” value ([2]; 1 hour p.i.)?
A: The value was 157.8 ± 4.4 a.u.

Q: And the “Fluorescence intensity, Stomach” value ([2]; 1 hour p.i.)?
A: The value was 99.1 ± 23.0 a.u.

Q: And the “Fluorescence intensity, Tumor” value ([2]; 1 hour p.i.)?
A: Its value is 100.5 ± 38.5 a.u.

Q: And the “Fluorescence intensity, Bone” value ([2]; 2 hours p.i.)?
A: The value was 57.5 ± 23.4 a.u.

Q: What about the “Fluorescence intensity, Brain” value ([2]; 2 hours p.i.) of the same compound?
A: Its value is 82.2 ± 17.4 a.u.

Q: What about the “Fluorescence intensity, Heart” value ([2]; 2 hours p.i.) of the same compound?
A: The value was 167.6 ± 12.2 a.u.

Q: What about the “Fluorescence intensity, Kidneys” value ([2]; 2 hours p.i.) of the same compound?
A: The value was 156.0 ± 14.1 a.u.

Q: What about the “Fluorescence intensity, L. Intest.” value ([2]; 2 hours p.i.) of the same compound?
A: The value was 6.4 ± 14.4 a.u.

Q: What about the “Fluorescence intensity, Liver” value ([2]; 2 hours p.i.) of the same compound?
A: Its value is 542.6 ± 26.8 a.u.

Q: What about the “Fluorescence intensity, Lungs” value ([2]; 2 hours p.i.) of the same compound?
A: Its value is 177.0 ± 10.4 a.u.

Q: And the “Fluorescence intensity, Muscle” value ([2]; 2 hours p.i.)?
A: The value was 0.0 ± 0.0 a.u.

Q: And the “Fluorescence intensity, Pancreas” value ([2]; 2 hours p.i.)?
A: Its value is 89.0 ± 32.0 a.u.

Q: What about the “Fluorescence intensity, S. Intest.” value ([2]; 2 hours p.i.) of the same compound?
A: Its value is 47.1 ± 13.9 a.u.

Q: What about the “Fluorescence intensity, Skin” value ([2]; 2 hours p.i.) of the same compound?
A: Its value is 32.0 ± 18.1 a.u.

Q: What about the “Fluorescence intensity, Spleen” value ([2]; 2 hours p.i.) of the same compound?
A: Its value is 136.9 ± 7.7 a.u.
